Assays:
[1] = target: T1, rHuman IGF-1 sR (IGF-1 sR), CF (R&D Systems Cat#391-GR) (human, UniProt P08069 31-932); experiment: ECL (MSD Multi-Spot) binding, antigen spotted on plate, Fab at 62.5 nM; blank spot 268;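 also: blank spot per well as comparator with Hit at signal to blank ratio of 4 or more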
T1 construct: Bought soluble receptor; also called insulin-like growth factor-1 soluble receptor; IGF-R1

[2] = target: T2, rHuman Notch-1/Fc Chimera, CF (R&D Systems Cat#3647-TK) (human, UniProt P46531 19-526); experiment: as above
T2 construct: Bought Fc chimera; Fc part of the bought chimera not given

[3] = target: T3, rHuman Erythropoietin R/Fc Chimera, CF (R&D Systems Cat#963-ER) (human, UniProt P19235 25-250); experiment: as above
T3 construct: Bought Fc chimera; also called EPO R/Fc; Epo R; Fc part of the bought chimera not given
T3 sequence: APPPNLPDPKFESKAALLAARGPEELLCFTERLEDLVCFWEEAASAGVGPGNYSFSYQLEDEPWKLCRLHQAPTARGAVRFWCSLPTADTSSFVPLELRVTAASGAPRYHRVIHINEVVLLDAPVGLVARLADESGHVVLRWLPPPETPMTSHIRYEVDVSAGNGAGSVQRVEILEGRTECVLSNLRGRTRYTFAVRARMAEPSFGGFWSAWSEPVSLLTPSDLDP

[4] = target: T1, rHuman IGF-1 sR (IGF-1 sR), CF (R&D …); experiment: ECL (MSD Multi-Spot) binding, antigen spotted on plate, Fab at 125 nM; blank spot 403;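 also: blank spot per well as comparator with Hit at signal to blank ratio of 4 or more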
[5] = target: T2, rHuman Notch-1/Fc Chimera, CF (R&D …); experiment: as above
[6] = target: T3, rHuman Erythropoietin R/Fc Chimera, CF …; experiment: as above
[7] = target: T1, rHuman IGF-1 sR (IGF-1 sR), CF (R&D …); experiment: ECL (MSD Multi-Spot) binding, antigen spotted on plate, Fab at 15.6 nM; blank spot 294;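 also: blank spot per well as comparator with Hit at signal to blank ratio of 4 or more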
[8] = target: T2, rHuman Notch-1/Fc Chimera, CF (R&D …); experiment: as above
[9] = target: T3, rHuman Erythropoietin R/Fc Chimera, CF …; experiment: as above
[10] = target: T1, rHuman IGF-1 sR (IGF-1 sR), CF (R&D …); experiment: ECL (MSD Multi-Spot) binding, antigen spotted on plate, Fab at 250 nM; blank spot 590;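 also: blank spot per well as comparator with Hit at signal to blank ratio of 4 or more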
[11] = target: T2, rHuman Notch-1/Fc Chimera, CF (R&D …); experiment: as above
[12] = target: T3, rHuman Erythropoietin R/Fc Chimera, CF …; experiment: as above
[13] = target: T1, rHuman IGF-1 sR (IGF-1 sR), CF (R&D …); experiment: ECL (MSD Multi-Spot) binding, antigen spotted on plate, Fab at 31.3 nM; blank spot 250;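 also: blank spot per well as comparator with Hit at signal to blank ratio of 4 or more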
[14] = target: T2, rHuman Notch-1/Fc Chimera, CF (R&D …); experiment: as above
[15] = target: T3, rHuman Erythropoietin R/Fc Chimera, CF …; experiment: as above
[16] = target: T1, rHuman IGF-1 sR (IGF-1 sR), CF (R&D …); experiment: ECL (MSD Multi-Spot) binding, antigen spotted on plate, Fab at 7.8 nM; blank spot 316;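 also: blank spot per well as comparator with Hit at signal to blank ratio of 4 or more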
[17] = target: T2, rHuman Notch-1/Fc Chimera, CF (R&D …); experiment: as above
[18] = target: T3, rHuman Erythropoietin R/Fc Chimera, CF …; experiment: as above
[19] = target: T1, rHuman IGF-1 sR (IGF-1 sR), CF (R&D …); experiment: ECL (MSD Multi-Spot) binding, antigen spotted on plate, Fab at 500 nM; blank spot 680;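 also: blank spot per well as comparator with Hit at signal to blank ratio of 4 or more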
[20] = target: T2, rHuman Notch-1/Fc Chimera, CF (R&D …); experiment: as above
[21] = target: T3, rHuman Erythropoietin R/Fc Chimera, CF …; experiment: as above
[22] = target: T1, rHuman IGF-1 sR (IGF-1 sR), CF (R&D …); experiment: ECL (MSD Multi-Spot) binding, antigen spotted on plate, Fab at 1000 nM; blank spot 1133;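 also: blank spot per well as comparator with Hit at signal to blank ratio of 4 or more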
[23] = target: T2, rHuman Notch-1/Fc Chimera, CF (R&D …); experiment: as above
[24] = target: T3, rHuman Erythropoietin R/Fc Chimera, CF …; experiment: as above
[25] = target: T4, rHuman HGF R/c-MET/Fc Chimera, CF (R&D Systems Cat#358-MT/CF) (human, UniProt P08581 25-932); experiment: MSD ECL multi-spot assay, antigen spotted on plate, Fab 0.36 uM; blank spot 1948
T4 construct: Bought protein; also called HGF R/Fc; hepatocyte growth factor receptor; Fc part of the bought chimera not given

[26] = target: T5, rHuman ErbB2/Fc Chimera, CF (R&D Systems Cat#1129-ER) (human, UniProt P04626 23-652); experiment: as above
T5 construct: Bought protein; also called HER2/neu; human epidermal growth factor 2 receptor; Fc part of the bought chimera not given

[27] = target: T6, rHuman CD44/Fc Chimera, CF (R&D Systems Cat#3660-CD) (human, UniProt P16070 21-220); experiment: as above
T6 construct: Bought protein; Fc part of the bought chimera not given

[28] = target: T7, rHuman Erythropoietin R/Fc Chimera, CF (R&D Systems Cat#963-ER) (human, UniProt P19235 25-250); experiment: as above
T7 construct: Bought protein; also called EPOR; EPO R/Fc; Fc part of the bought chimera not given
T7 sequence: T3 sequence

[29] = target: T8, rHuman IGF-1 sR (IGF-1 sR), CF (R&D Systems Cat#391-GR) (human, UniProt P08069 31-932); experiment: as above
T8 construct: Bought soluble receptor; also called insulin-like growth factor-1 soluble receptor; IGF-R1

[30] = target: T9, rHuman P-Cadherin/Fc Chimera, CF (R&D Systems Cat#861-PC) (human, UniProt P22223 108-654); experiment: as above
T9 construct: Bought protein; also called CDH3; Fc part of the bought chimera not given

B1: Fab VH1-46_IGHD6-13*01_IGHJ4*01 & B3_IGKJ1*01 (Fab, V domains shown)
VH: QVQLVQSGAEVKKPGASVKVSCKASGYTFTSYYMHWVRQAPGQGLEWMGIINPSGGSTSYAQKFQGRVTMTRDTSTSTVYMELSSLRSEDTAVYYCAREGYSSSWYDYFDYWGQGTLVTVSS
VL: not shown
notes: Tested as a Fab made in E. coli: VH joined to the CH1 of Plasmid A (with Flag and His tags), VL joined to the kappa constant region of Plasmid C; also called VH1-46_IGHD6-13*01_IGH41*01 & B3_IGKJ1*01
Work on B1 yielded an ECL signal [1] of 491, an ECL signal [2] of 536 and an ECL signal [3] of 7750. It also gave an ECL signal [4] of 654, an ECL signal [5] of 802 and an ECL signal [6] of 9240. For the same binder, the ECL signal [7] was 349, the ECL signal [8] was 418 and the ECL signal [9] was 8360. It also gave an ECL signal [10] of 993, an ECL signal [11] of 1240 and an ECL signal [12] of 8540. The ECL signal [13] was 385, the ECL signal [14] was 563 and the ECL signal [15] was 7880. It also gave an ECL signal [16] of 353, an ECL signal [17] of 486 and an ECL signal [18] of 6760. For the same binder, the ECL signal [19] was 1330, the ECL signal [20] was 1980 and the ECL signal [21] was 10300. It also gave an ECL signal [22] of 1670, an ECL signal [23] of 2270 and an ECL signal [24] of 8590.

B2: Fab VH4-28_IGHD7-27*01_IGHJ1*01 & L2_IGKJ1*01 (Fab, V domains shown)
VH: QVQLQESGPGLVKPSDTLSLTCAVSGYSISSSNWWGWIRQPPGKGLEWIGYIYYSGSTYYNPSLKSRVTMSVDTSKNQFSLKLSSVTAVDTAVYYCARTNWGAEYFQHWGQGTLVTVSS
VL: not shown
In the case of B2, the ECL signal [25] is reported as 2030, the ECL signal [26] is reported as 2030 and the ECL signal [27] is reported as 2480. The ECL signal [28] was 19400, the ECL signal [29] was 1700 and the ECL signal [30] was 2740.

From patent publication US20120058906A1 (published 2012)
